Among the data in patent US5798442A, “Peptidyl derivatives as inhibitors of pro-apoptotic cysteine proteinases” (Merck Frosst Canada, Inc., priority 1995, dated 1998) are Km values, retold here.

Substrate in this series: CC(=O)N[C@@H](CC(=O)O)C(=O)N[C@@H](CCC(=O)O)C(=O)N[C@H](C(=O)N[C@@H](CC(=O)O)C(=O)Nc1ccc2c(C)cc(=O)oc2c1)C(C)C
The experiment in a line: continuous fluorometric assay with Ac-DEVD-AMC and purified apopain. Format: biochemical, human. To be noted: other: purified apopain, 25° C., pH 7.5.

B1: apopain/CPP32 (Homo sapiens) (protein)
chain 1: SGISLDNSYKMDYPEMGLCIIINNKNFHKSTGMTSRSGTDVDAANLRETFRNLKYEVRNKNDLTREEIVELMRDVSKEDHSKRSSFVCVLLSHGEEGIIFGTNGPVDLKKITNFFRGDRCRSLTGKPKLFIIQACRGTELDCGIETD
chain 2: SGVDDDMACHKIPVEADFLYAYSTAPGYYSWRNSKDGSWFIQSLCAMLKQYADKLEFMHILTRVNRKVATEFESFSFDATFHAKKQIPCIVSMLTKELYFYH
notes: cleavage between Asp^28 -Ser^29 and Asp^175 -Ser^176; cleavage sites which yield the p17 and p12 subunits from the CPP32 proenzyme; endogenous in cells; host or cells: THP-1 cells (ATCC TIB 202)
The Km is the substrate concentration at which the rate is half of its maximum. Take B1: the Michaelis-Menten constant (Km) came out at 9.7 ± 1.0 µM.
